# From patent US8652796 (Harvard, dated 2014)
# B1: GFP/µNS(471-721) (other)
# chain: SNDVTDGIKLQLDASRQCHECPVLQQKVVELEKQIIMQKSIQSDPTPVALQPLLSQLRELSSEVTRLQMELSRAQSLNAQLEADVKSAQSCSLDMYLRHHTCINGHAKEDELLDAVVAPDVRREIMEKRSEVRQGWCERISKEAAAKCQTVIDDLTLMNGKQAQEITELRDSAEKYEKQIAELVSTITQNQITYQQELQALVAKNVELDALNQRQAKSLRITPSLLSATPIDSVDDVADLIDFSVPTDEL
# notes: Expressed from pEGFP-C1-M3(471-721); GFP at the N terminus of µNS residues 471-721; also called GFP-471-721 fusion protein; EGFP/µNS(471-721); not shown: enhanced Aequorea victoria green fluorescent protein (EGFP) as encoded by the pEGFP-C1 vector (BD Biosciences); the enha
# How the values were obtained:
# [1] = target: T1, T Antigen-HA fusion protein (SV40, UniProt P03070 1-708); test: fluorescence microscopy of COS cells expressing T Antigen-HA with GFP-471-721
# T1 construct: Construct is not described
# SV40 T antigen = target: T2, SV40 T antigen (SV40, UniProt P03070 1-708); test: recruitment to inclusions, fluorescence microscopy of cells
# T2 construct: also called T-Ag; viral (SV40) T antigen
# T1 sequence (P03070 1-708, tags or fused parts left off): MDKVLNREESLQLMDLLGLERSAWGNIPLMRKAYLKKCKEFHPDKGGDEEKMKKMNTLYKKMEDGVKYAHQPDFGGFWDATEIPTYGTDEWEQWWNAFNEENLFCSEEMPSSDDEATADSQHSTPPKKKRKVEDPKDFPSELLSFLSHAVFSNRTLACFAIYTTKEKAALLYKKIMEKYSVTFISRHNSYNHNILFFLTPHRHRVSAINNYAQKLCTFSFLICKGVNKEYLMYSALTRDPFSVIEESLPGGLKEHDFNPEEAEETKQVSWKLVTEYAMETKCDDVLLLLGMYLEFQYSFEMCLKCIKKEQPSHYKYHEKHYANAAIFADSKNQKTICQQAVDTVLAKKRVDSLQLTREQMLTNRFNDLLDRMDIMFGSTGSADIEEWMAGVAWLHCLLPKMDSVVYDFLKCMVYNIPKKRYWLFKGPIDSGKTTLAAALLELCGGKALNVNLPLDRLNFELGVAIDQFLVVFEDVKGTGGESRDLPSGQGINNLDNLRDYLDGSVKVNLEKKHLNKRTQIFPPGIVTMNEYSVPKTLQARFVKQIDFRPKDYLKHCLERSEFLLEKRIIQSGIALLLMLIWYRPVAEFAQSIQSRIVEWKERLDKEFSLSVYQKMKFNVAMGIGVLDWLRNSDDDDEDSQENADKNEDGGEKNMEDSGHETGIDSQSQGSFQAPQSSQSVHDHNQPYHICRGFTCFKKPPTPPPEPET
binder,measurement,setting,value
B1,binding result,[1],no binding
same,binding result,SV40 T antigen,no binding
